In patent publication US8821862B2, “Soluble β-N-acetylglucosaminidase based antibiofilm compositions and uses thereof” (Kane Biotech Inc., priority 2002, dated 2014):

Experiments:
E. coli = experiment: In vitro microplate biofilm formation assay (crystal violet); type: cell-based, Escherichia coli; conditions: DispersinB at different concentrations, CFA medium, 26° C., 24 hours
Method: (§1) An in vitro microplate assay was performed to determine the effect of DispersinB™ on the growth and biofilm formation of E. coli, S. epidermidis, and S. aureus. E. coli biofilm was grown in colony forming antigen (CFA) medium. […] S. epidermidis and S. aureus biofilm was grown in tryptic soy broth (TSB). Bacteria were separately grown in 96-well microtiterplate in the absence and presence of DispersinB™ at different concentrations. The E. coli plate was incubated at 26° C. for 24 hours. The S. epidermidis and S. aureus biofilm plates were incubated at 37° C. for 24 hours. Growth of planktonic cells based on the absorbance at 600 nm was determined using Labsystems Multiskan Ascent microplate reader. Biofilm was measured by discarding the medium; rinsing the wells with water (three times), and staining bound cells with crystal violet. The dye was solubilized with 33% acetic acid, and absorbance at 630 nm was determined using a microtiter plate reader.

S. aureus = experiment: as above; type: cell-based, Staphylococcus aureus; conditions: DispersinB at different concentrations, TSB, 37° C., 24 hours
Method: as §1

[1] = tested on: biofilm-embedded S. epidermidis; experiment: In vitro biofilm killing assay after DispersinB pre-treatment; type: cell-based, Staphylococcus epidermidis; conditions: DispersinB alone, 20 μg/ml, 30 min
Method: An in vitro biofilm assay was performed to determine the effect of DispersinB™ pre-treatment on the susceptibility of S. epidermidis to SDS. S. epidermidis biofilm grown in tubes were pretreated with PBS or DispersinB™ (20 μg/ml) for 30 min, and then treated with SDS (0.2 mg/ml) for 5 min at 37° C. […] However, SDS caused a 1.5 log unit decrease in the number of CFUs in tubes pretreated with […] biofilm embedded cells more susceptible to SDS.
An in vitro biofilm assay was performed to determine the effect of DispersinB™ pre-treatment on the susceptibility of biofilm-embedded S. epidermidis to CHX. S. epidermidis biofilm grown in tubes were pretreated with PBS or DispersinB™ (20 μg/ml) for 30 min, and then treated with CHX (0.2 μg/ml) for 5 min at 37° C. […] However, CHX caused a 1.6 log decrease of CFU in tubes pretreated with DispersinB™. DispersinB™ pretreatment made biofilm-embedded cells more susceptible to CHX.
An in vitro biofilm assay was performed to determine the effect of DispersinB™ pre-treatment on the susceptibility of S. epidermidis to BKC. S. epidermidis biofilm grown in tubes were pretreated with PBS or DispersinB™ (20 μg/ml) for 30 min, and then treated with BKC (0.4 μg/ml) for 60 min at 37° C. […] However, BKC caused a 2.2 log decrease in CFU in tubes pretreated with DispersinB™. DispersinB™ pre-treatment made biofilm-embedded cells more susceptible to BKC.
An in vitro biofilm assay was performed to determine the effect of DispersinB™ pre-treatment on susceptibility of S. epidermidis to silver nanopowder (SNP). S. epidermidis biofilm grown in tubes were pretreated with PBS or DispersinB™ (20 μg/ml) for 30 min, and then treated with SNP (0.03125 μg/ml) for 60 min at 37° C. […] However, SNP caused a 1.5 log decrease in CFU in tubes pretreated with DispersinB™. DispersinB™ pre-treatment made biofilm embedded cells more susceptible to SNP treatment.

[2] = tested on: E. coli csrA luxCDABE kan^r biofilm; experiment: Bioluminescent E. coli biofilm on filter disc, luminescence; type: cell-based; conditions: for luminescence, Day 1 / luminescence, Day 2 / luminescence, Day 3 / luminescence, Day 4: DispersinB 50 μg/ml
From the text: E. coli TRMG1655 [csrA::kan^r] strain was transformed with transposon, mini-TN5 luxCDABE::kan^r for luciferase expression (Kadurugamuwa et al., 2005, Infect. Immun. 73: 3878-3887), and the operon integrated into the chromosome. Integration was confirmed by amplification of the genomic DNA upstream of the transposon by inverse PCR using Ssp1-digested genomic DNA. Primers UTCF1 (5′-[…]-3′; SEQ ID NO:13) and UTCR (5′-[…]-3′; SEQ ID NO:14) were used to amplify the upstream region using Pfu DNA polymerase (Sigma-Oligosynthesis, St. Louis, Mo.). The lux operon is derived from Photorhabdus luminescence and was obtained from Xenogen Inc. (Alameda, Calif.). These bioluminescent bacteria allow real-time monitoring by noninvasive imaging of biofilms, either in vitro or in vivo.
A cell suspension of 10^6 E. coli csrA luxCDABE kan^r was used to inoculate a filter disc (Millipore Corporation, Billerica, Mass.). The E. coli biofilm was maintained in minimal media (M9) supplemented with 50 μg/ml kanamycin and 100 μg/ml ampicillin. The media were changed every day by transferring the disc to new plate. After 3 days, chemoluminescence activity of the established biofilm was measured using a Typhoon™ imaging scanner (General Electric Healthcare Life Sciences) and ImageQuant TL software (Amersham Biosciences, Sunnyvale, Calif.). The measure luminescence directly correlates with the metabolic activity of the biofilm.
Luminescence was measured at day 0 and was used as the control. Following the measurement of luminescence at day 0, each disc was treated with one of the following—media alone (control) and media containing:
Luminescence was measured every 24 hours followed by replacing the media. Thus, every 24 h following the measurement of the luminescence, 10 μl each of the different solutions was applied to the plate and the biofilm disc was placed on top of the drop everyday. The quantitative analysis of the biofilm luminescence from each day was used to compare the biofilm activity after treatment with the different treatments.
The experiments were repeated using the same E. coli strain csrA luxCDABE kan^r and protocols. Biofilm discs were pulsed with media alone (control) and media containing: […]

[3] = tested on: A. actinomycetemcomitans CU1000 biofilms; experiment: Biofilm killing assay; type: cell-based; conditions: DispersinB alone, 20 μg/mL
Method: Biofilm Killing Assay. […] Tubes were vortexed for 10 s, and 20 μL aliquots of the detached biofilms were transferred to the wells of a flat-bottomed 96-well microtiter plate containing 180 μL of fresh broth. Five serial dilutions (20 μL into 180 μL) were performed directly into adjacent wells. Plates were incubated for 48 h and then rinsed and stained with crystal violet as described above. Wells containing 30-300 biofilm colonies were photographed under a dissecting microscope and counted. In some assays, biofilms were pre-treated with 1 mL of DispersinB™ (20 μg/mL in PBS) for 5 min prior to the SDS treatment. In these assays, a 100 μL quantity of SDS in PBS (at 10 times the test concentration) was added directly to the DispersinB™-treated cell suspension and mixed. After 5 min, tubes were vortexed briefly, and 20-μL aliquots of culture were enumerated as described above. Killing assays were performed in duplicate tubes on at least 5 separate occasions, with similar results.

[4] = DispersinB enzyme activity; type: biochemical; conditions: recombinant protein purified from an overexpressing strain of E. coli
Method: Reagents. Recombinant dispersinB protein was purified from an overexpressing strain of E. coli as previously described (Kaplan et al., J. Bacteriol. 2003, 185: 4693-4698). […] Sodium dodecyl sulfate (SDS) was purchased from Fluka (St. Gallen, Switzerland). Phosphate-buffered saline (PBS; 138 mM NaCl, 10 mM phosphate, 2.7 mM KCl, pH 7.4) was purchased from Sigma Chemical Company (St. Louis, Mo., USA).

[5] = Shelf life of purified DispersinB; type: physicochemical
[6] = Table 3, phage 10^8, treatment renewed every 24 h
[7] = Table 4, repeated experiment, BisEDT 50 μg/ml, phage cocktail 10^8

B1: DispersinB™: 381 amino acid soluble β-N-acetylglucosaminidase encoded by dspB of A. actinomycetemcomitans; mature polypeptide SEQ ID NO:11 (protein)
chain: NCCVKGNSIYPQKTSTKQTGLMLDIARHFYSPEVIKSFIDTISLSGGNFLHLHFSDHENYAIESHLLNQRAENAVQGKDGIYINPYTGKPFLSYRQLDDIKAYAKAKGIELIPELDSPNHMTAIFKLVQKDRGVKYLQGLKSRQVDDEIDITNADSITFMQSLMSEVIDIFGDTSQHFHIGGDEFGYSVESNHEFITYANKLSYFLEKKGLKTRMWNDGLIKNTFEQINPNIEITYWSYDGDTQDKNEAAERRDMRVSLPELLAKGFTVLNYNSYYLYIVPKASPTFSQDAAFAAKDVIKNWDLGVWDGRNTKNRVQNTHEIAGAALSIWGEDAKALKDETIQKNTKSLLEAVIHKTNGDE
modifications: Actinobacillus actinomycetemcomitans
biofilm formation (E. coli): appreciable effect | biofilm formation (S. aureus): appreciable effect | killing of biofilm-embedded S. epidermidis [1]: did not significantly kill | luminescence, Day 0 ([2]; Table 3, Day 0, measured before treatment (baseline)): 948.72 RLU | luminescence, Day 1 [2, 6]: 1167.19 RLU | luminescence, Day 2 [2, 6]: 1297.42 RLU | luminescence, Day 3 [2, 6]: 1487.76 RLU | luminescence, Day 4 [2, 6]: 1550.01 RLU | luminescence, Day 1 [2, 7]: 2137.73 RLU | luminescence, Day 2 [2, 7]: 1911.9 RLU | luminescence, Day 3 [2, 7]: 2982.02 RLU | luminescence, Day 4 [2, 7]: 2032.06 RLU | luminescence, Day 0 ([2]; Table 4, repeated experiment, Day 0, before treatment (baseline)): 1815.26 RLU | course of biofilm luminescence (RLU) / metabolic activity over time ([2]; over 4 days, result in words): growth similar to the control | killing of A. actinomycetemcomitans biofilms ([3]; 5 min or 30 min): did not significantly kill | reduction in the number of CFU/tube ([3]; 30 min, versus mock-treated controls): little or no reduction | specific activity [4]: ~10^3 units per mg of protein | shelf life [5]: approximately 12 months
